The target of one experiment is HLA-A*01:01. In words: IEDB peptide-MHC binding, purified MHC/competitive/radioactivity; filed as Kd, often an IC50 or EC50 that approximates it; ≥ and ≤ were set here for values at or beyond the usual limits of such assays.
The target of another experiment is HLA-A*30:02. The description is as above.
For experiment [1], the target named is HLA-A*26:01. The description is as above.
In a further experiment the target is HLA-B*40:01. Described as above.
In the next experiment the target is HLA-A*24:02. Described as above.
The target in the next experiment is HLA-B*44:02. The description is as above.
The target of a further experiment is HLA-B*44:03. The experiment is described as above.
In the next experiment the target is HLA-A*23:01. Described as above.
A further experiment has as its target HLA-B*53:01. The description is as above.
Another experiment concerns the target HLA-A*29:02. Described as above.
Another experiment concerns the target HLA-A*31:01. The experiment can be described thus: IEDB peptide-MHC binding, purified MHC/direct/fluorescence; filed as Kd, often an IC50 or EC50 that approximates it; ≥ and ≤ were set here for values at or beyond the usual limits of such assays. The following applies: source organism: SARS-CoV1.
The target in the next experiment is HLA-A*33:01. The experiment can be described thus: IEDB peptide-MHC binding, purified MHC/competitive/radioactivity; filed as Kd, often an IC50 or EC50 that approximates it; ≥ and ≤ were set here for values at or beyond the usual limits of such assays. The following applies: source organism: SARS coronavirus Tor2.
A further experiment addresses HLA-A*68:01. The description is as above. The following applies: source organism: SARS coronavirus Tor2.
The target of the next experiment is HLA-A*03:01. The experiment is described as above. The following applies: source organism: Dengue virus 1 Brazil/97-11/1997.
The next experiment deals with HLA-A*30:01. Described as above.
Experiment [2] has as its target HLA-A*26:01. The experiment can be described thus: IEDB peptide-MHC binding, purified MHC/direct/fluorescence; filed as Kd, often an IC50 or EC50 that approximates it; ≥ and ≤ were set here for values at or beyond the usual limits of such assays. To be noted: source organism: Mycobacterium tuberculosis.
Where [3] appears, read: source organism: Dengue virus 2 Jamaica/1409/1983.
The mark [4] stands for this setting: source organism: Dengue virus 3 Martinique/1243/1999.
The mark [5] stands for this setting: source organism: Dengue virus 4 Philippines/H241/1956.
The mark [6] stands for this setting: source organism: Mammarenavirus guanaritoense.
Setting [7] is: source organism: Dengue virus 1 Brazil/97-11/1997.
Setting [8] is: source organism: Mammarenavirus whitewaterense.
[9] abbreviates: source organism: Vaccinia virus WR.
The mark [10] stands for this setting: source organism: Dengue virus 1 Singapore/S275/1990.

Among the data in the Immune Epitope Database (IEDB) are Kd values, retold here.

As usually defined, the Kd is the free concentration of one partner at which half of the binding sites on the other are occupied at equilibrium, for simple one-to-one binding. As to ALGKSEFQIY, the results for the Kd in the experiment with HLA-A*01:01 (setting [3]) and with HLA-A*30:02 (setting [3]) were 1540 nM and at least 69700 nM, respectively.
EIPLQWIASA: in the experiment with HLA-A*26:01 [1] (setting [4]), the Kd is 2620 nM.
Consider GEFRLRGEQR, for which the Kd with HLA-B*40:01 (setting [5]) amounted to 1400 nM.
Regarding KHMIAGVFF, the Kd with HLA-A*24:02 (setting [4]) was determined as 837 nM.
With QENPYRTWAY, the Kd is 1600 nM in the experiment with HLA-B*40:01 (setting [5]), 7.66 nM in the experiment with HLA-B*44:02 (setting [5]) and 8.86 nM with HLA-B*44:03 (setting [5]).
Consider IYVILTILTI, for which the values for the Kd with HLA-A*23:01 (setting [5]) and in the experiment with HLA-A*24:02 (setting [5]) were 11.8 nM and 48.6 nM, respectively.
Take FVTLITGNM: the Kd with HLA-A*26:01 [1] (setting [3]) is 1390 nM.
Turning to MIDKTPVHSW, in the experiment with HLA-B*53:01 (source organism: Dengue virus 4 Thailand/0348/1991), the Kd worked out at 725 nM.
In the case of NEMGLIEKT, the Kd in the experiment with HLA-B*44:03 (setting [5]) is 2000 nM.
Regarding SYSMCTGKF, the Kd came out at 142 nM in the experiment with HLA-A*23:01 (setting [3]) and 108 nM in the experiment with HLA-A*24:02 (setting [3]).
Consider MSPALFHAFF, for which the Kd was determined as 148 nM with HLA-A*23:01 (setting [6]), 122 nM with HLA-A*24:02 (setting [6]) and 513 nM with HLA-A*29:02 (setting [6]).
Turning to PYLGKREDLW, the Kd with HLA-A*23:01 (setting [5]) stood at 505 nM; with HLA-A*24:02 (setting [5]), 1620 nM.
Regarding LIGLTSRATW, the Kd with HLA-B*53:01 (setting [3]) came to 459 nM.
Regarding YVVIGLLFM, the Kd in the experiment with HLA-A*26:01 [1] (setting [7]) was 12500 nM.
Consider AVLQSGFRK, for which the values for the Kd with HLA-A*31:01, in the experiment with HLA-A*33:01 and with HLA-A*68:01 were 186 nM, at least 77700 nM and 393 nM, respectively.
Turning to LARWSSFKK, the Kd with HLA-A*03:01 came to 171 nM; with HLA-A*30:01 (setting [7]), 6.79 nM.
Regarding TEKDSPVNI, in the experiment with HLA-B*44:02 (setting [3]), the Kd is 587 nM.
Consider LIDGISLGL, for which the Kd with HLA-A*01:01 (source organism: Dengue virus 4 Dominica/814669/1981) is 10400 nM.
Regarding IYQPESQKF, the results for the equilibrium dissociation constant (Kd) with HLA-A*23:01 (setting [8]), in the experiment with HLA-A*24:02 (setting [8]) and with HLA-A*29:02 (setting [8]) were 53.4 nM, 33.5 nM and 412 nM, respectively.
For the sequence KEFASGRKSI, in the experiment with HLA-B*40:01 (setting [5]), the Kd was found to be 111 nM.
As to QPSKGWHDW, the Kd with HLA-B*53:01 (setting [4]) came out at 207 nM.
In the case of AECPNTNRAW, the Kd was determined as 35.6 nM with HLA-B*44:02 (setting [3]) and 53 nM with HLA-B*44:03 (setting [3]).
With LWEGSPGKF, the values for the Kd with HLA-A*23:01 (setting [7]) and in the experiment with HLA-A*24:02 (setting [7]) were 7640 nM and 6160 nM, respectively.
Regarding ESQMLIPKAY, the Kd with HLA-A*01:01 (setting [5]) was at least 39300 nM; in the experiment with HLA-A*30:02 (setting [5]), 8.93 nM.
As to EPSKGWKNW, the Kd with HLA-B*53:01 (setting [5]) worked out at 608 nM.
For the sequence GESNIVIGI, the Kd in the experiment with HLA-B*40:01 (setting [4]) was 2.36 nM; with HLA-B*44:02 (setting [4]), 10.8 nM; in the experiment with HLA-B*44:03 (setting [4]), 5.95 nM.
On to SYLAGAGLAF, for which the Kd worked out at 4.35 nM in the experiment with HLA-A*23:01 (setting [7]) and 71.5 nM in the experiment with HLA-A*24:02 (setting [7]).
For HVYDFEPYY, the Kd with HLA-A*30:01 (setting [9]) was 27.4 nM.
The same measure, in the same setting: the same measure for RTHTALIFL: 0.704 nM.
Take GEKALKLSW: the Kd in the experiment with HLA-B*44:02 (setting [7]) amounted to 39.7 nM; with HLA-B*44:03 (setting [7]), 40.2 nM.
With LPEEQDQNY, the Kd with HLA-B*53:01 (setting [4]) was found to be 1520 nM.
As to HETGRLEPSW, the Kd with HLA-B*44:02 (setting [5]) was at least 70200 nM; with HLA-B*44:03 (setting [5]), 188 nM.
On to KEENMVKSLV, for which the Kd in the experiment with HLA-B*40:01 (setting [4]) came out at 243 nM.
With KVMFVIRFK, the Kd in the experiment with HLA-A*30:01 (setting [9]) was 0.597 nM.
Regarding EERDDTLTIL, in the experiment with HLA-B*40:01 (setting [7]), the Kd turned out to be 22 nM.
LTLTAAVLML: the Kd in the experiment with HLA-A*01:01 (setting [7]) was 6160 nM.
As for LTDGEERVIL, the Kd with HLA-A*01:01 (setting [3]) was at least 23600 nM.
As to ITEAELTGY, the Kd with HLA-A*26:01 [1] (setting [3]) worked out at 8270 nM; with HLA-A*30:02 (setting [3]), 9.47 nM.
On to LWYAQIQPHW, for which the Kd in the experiment with HLA-A*23:01 (setting [3]) was determined as 203 nM; with HLA-A*24:02 (setting [3]), 13.1 nM.
For EVSARIAAL, the Kd in the experiment with HLA-A*26:01 [2] is 12.4 nM.
On the same count and under the same terms, as for EVSTAIAAL, the figure is 12.2 nM.
For the sequence AQIMEVTARW, the values for the Kd in the experiment with HLA-B*44:02 (setting [10]) and in the experiment with HLA-B*44:03 (setting [10]) were 156 nM and 104 nM, respectively.
Regarding VTDFKGKTV, in the experiment with HLA-A*01:01 (setting [3]), the Kd was at least 20300 nM.
